Measurements published in US20230094162A1 (MacroGenics, published 2023).
Positions count from the first letter of the chain named. In names and notes the source's numbering stands. Read-outs that look alike come from different tables or passages of the source. One block for each binder: values may come before it.

Legend:
[1] = target: T1, PD-L1 expressed on the cell surface (CHO/PD-L1 cells) (UniProt Q9NZQ7 19-290); assay: cell-based or functional assay
[2] = target: T1, PD-L1 expressed on the cell surface …; assay: flow cytometry (FACS) on CHO cells expressing PD-L1, MFI
Protocol: (§1) FACS analysis to evaluate the test articles for binding to cell surface PD-L1 was performed essentially as follows: 100 μL of CHO cells expressing PD-L1 (CHO/PD-L1) (1.0×10⁵ to 1.0×10⁶ cells/well) and 100 μL of serially diluted test article was added to each well of microtiter assay plate(s), mixed and incubated at RT for about 30 min. The cells were washed with FACS Buffer and secondary antibody (goat anti-human-FITC, PE, or APC) was then added to each well, after which, the components were mixed and the wells were incubated at RT for about 30 min. Cells were washed and resuspended in 250 μL FACS Buffer and analyzed by flow cytometry (BD LSR Fortessa or FACSCanto II) for cell events collection. Data analysis were performed via FloJo v10.

[3] = target: T1, PD-L1 expressed on the cell surface …; assay: cell-based or functional assay; remark: listed apart in the source
[4] = target: T1, PD-L1 expressed on the cell surface …; assay: flow cytometry (FACS) on CHO cells expressing PD-L1, MFI; remark: listed apart in the source
Protocol: as §1
Test articles were used at 10 μg/mL and five-fold serial dilutions for the FACS analysis and at 50 μg/mL and five-fold serial dilutions for the PD-L1 reporter assay.

[5] = target: T2, CD137 expressed on the cell surface (CHO/CD137 cells) (UniProt Q07011 24-255, limits assumed); assay: flow cytometry (FACS) on CHO cells expressing CD137, MFI
T2 construct: whole, on cells; also called cell surface CD137; Jurkat-NF-κB-Luc reporter cells overexpressing CD137
T2 sequence (Q07011 24-255 limits assumed): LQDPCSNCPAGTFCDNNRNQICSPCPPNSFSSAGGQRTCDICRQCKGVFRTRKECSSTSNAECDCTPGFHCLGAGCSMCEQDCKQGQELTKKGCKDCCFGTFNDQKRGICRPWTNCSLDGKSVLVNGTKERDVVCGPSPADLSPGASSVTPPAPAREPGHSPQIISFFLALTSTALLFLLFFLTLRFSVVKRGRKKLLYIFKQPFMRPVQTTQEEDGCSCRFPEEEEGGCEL
Protocol: FACS analysis to evaluate the test articles for binding to cell surface CD137 was performed essentially as follows: 100 μL of CHO cells expressing CD137 (CHO/CD137) (1.0×10⁵ to 1×10⁶ cells/well) and 100 μL of serially diluted test article or control was added to each well of microtiter assay plate(s), mixed and incubated at RT for about 30 min. The cells were washed with FACS Buffer and secondary antibody (goat anti-human-APC, PE, or FITC) was then added to each well (1:1000), after which, the components were mixed and the wells were incubated at RT for about 30 min. Cells were washed and resuspended in 250 μL FACS Buffer and analyzed by flow cytometry (BD LSR Fortessa or FACSCanto II) for cell events collection. Data analysis were performed via FloJo v10.

[6] = target: T1, PD-L1 expressed on the cell surface …; assay: flow cytometry (FACS) on JIMT-1 cells (PD-L1 positive), MFI
[7] = target: T1, PD-L1 expressed on the cell surface …; assay: cell-based or functional assay; remark: listed apart in the source
[8] = target: T3, soluble PD-L1 fused to a His tag (shPD-L1) (UniProt Q9NZQ7 19-238, limits assumed); assay: ELISA on plate-coated shPD-L1
T3 construct: the species of shPD-L1 is not written out; also called shPD-L1-his; not shown: His tag
T3 sequence (Q9NZQ7 19-238 limits assumed): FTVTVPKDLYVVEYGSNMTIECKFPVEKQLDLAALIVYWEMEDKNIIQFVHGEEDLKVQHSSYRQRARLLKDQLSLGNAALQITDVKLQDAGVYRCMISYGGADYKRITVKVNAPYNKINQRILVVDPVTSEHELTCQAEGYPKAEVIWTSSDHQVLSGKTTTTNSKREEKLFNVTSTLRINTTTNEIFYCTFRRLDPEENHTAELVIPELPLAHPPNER
Protocol: For the hybridoma supernatants anti-CD137 antibody was utilized at 1.0 μg/mL and six three-fold serial dilutions. The amount of test article binding to the immobilized CD137 (human or cynomolgus monkey) was assessed using a goat anti-mouse IgG-HRP secondary antibody. All samples were analyzed on a plate reader (Victor 2 Wallac, Perkin Elmer) and EC50 values were calculated from dose-response curves by nonlinear regression analysis.
The binding of antibodies comprising these substitutions were evaluated for binding to a soluble PD-L1- fused to a His tag (shPD-L1) using an ELISA assay essentially as described above for CD137 binding except the plates were coated with shPD-L1 at 0.5 μg/mL and a goat anti-human IgG-HRP secondary antibody was used.

[9] = target: T1, PD-L1 expressed on the cell surface …; assay: cell-based or functional assay; remark: listed apart in the source
[10] = target: T2, CD137 expressed on the cell surface …; assay: flow cytometry (FACS) on CHO cells expressing CD137, MFI; remark: listed apart in the source

T1 sequence (Q9NZQ7 19-290): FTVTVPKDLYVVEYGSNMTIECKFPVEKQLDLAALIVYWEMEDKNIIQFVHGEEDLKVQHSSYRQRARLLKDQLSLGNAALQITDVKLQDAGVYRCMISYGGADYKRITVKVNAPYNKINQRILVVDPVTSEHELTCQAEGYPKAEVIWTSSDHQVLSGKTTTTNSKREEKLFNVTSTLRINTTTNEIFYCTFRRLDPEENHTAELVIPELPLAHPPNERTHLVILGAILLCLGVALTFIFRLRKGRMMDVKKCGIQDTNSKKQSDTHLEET

B2: hPD-L1 MAB-2(1.1) (antibody, V domains shown)
VH: EVQLVESGGGLVQPGGSLRLSCAASGFTFSSYTMSWVRQAPGKGLEWVAYISIGGGTTYYPDTVKGRFTISRDNAKNTLYLQMNSLKTEDTAVYYCARQGLPYYFDYWGQGTLVTVSS
VL: DIQMTQSPSSLSASVGDRVTITCKASQDVNTAVAWYQQKPGKAPKLLIYWASTRHTGVPSRFSGSGSGTDFTLTISSLQPEDFATYYCQQHYNTPLTFGQGTKVEIK
notes: Humanized anti-PD-L1 antibody; also called hPD-1 MAB-2(1.1); hPD-1 MAB-2 VH1
EC50 (read off the curve) [6]: ~0.005 µg/mL
EC50 (read off the curve) [1]: ~0.04 µg/mL
EC50 (read off the curve) [4]: ~0.03 µg/mL
EC50 (read off the curve) [7]: ~0.07 µg/mL

B4: hPD-1 MAB-2 VH1 + T77S (antibody, V domains shown)
VH: B2 VH with T78S
VL: B2 VL
notes: Deimmunization variant of hPD-L1 MAB-2(1.1)
binding result [8]: binds

B5: hPD-1 MAB-2 VH1 + T77S, K83R and T84A (antibody, V domains shown)
VH: B2 VH with T78S, K87R, T88A
VL: B2 VL
notes: also called hPD-L1 MAB-2 VH2; hPD-L1 MAB-2(2.1)
binding result [8]: binds

B8: TRIDENT-A6 (bispecific antibody, human IgG1, kappa, L234A L235A)
chain 1: EIVMTQSPATLSLSPGERATLSCRASQSVSSNYLSWFQQKPGQAPRLLIYGASTRATGIPARFSGSGSGTDFTLTISSLQPEDFAVYYCQQDYDLPWTFGQGTKVEIKGGGSGGGGQVQLQESGPGLVKPSETLSLTCTVSGGSISSYYWSWIRQPPGKGLEWIGRIYTSGSTNYNPSLKSRVTMSVDTSKNQFSLKLSSVTAADTAVYYCARDGWYDEDYNYYGMDVWGQGTTVTVSSGGCGGGEVAALEKEVAALEKEVAALEKEVAALEKGGGDKTHTCPPCPAPEAAGGPSVFLFPPKPKDTLYITREPEVTCVVVDVSHEDPEVKFNWYVDGVEVHNAKTKPREEQYNSTYRVVSVLTVLHQDWLNGKEYKCKVSNKALPAPIEKTISKAKGQPREPQVYTLPPSREEMTKNQVSLWCLVKGFYPSDIAVEWESNGQPENNYKTTPPVLDSDGSFFLYSKLTVDKSRWQQGNVFSCSVMHEALHNHYTQKSLSLSPGK
chain 2: EIVMTQSPATLSLSPGERATLSCRASQSVSSNYLSWFQQKPGQAPRLLIYGASTRATGIPARFSGSGSGTDFTLTISSLQPEDFAVYYCQQDYDLPWTFGQGTKVEIKGGGSGGGGQVQLQESGPGLVKPSETLSLTCTVSGGSISSYYWSWIRQPPGKGLEWIGRIYTSGSTNYNPSLKSRVTMSVDTSKNQFSLKLSSVTAADTAVYYCARDGWYDEDYNYYGMDVWGQGTTVTVSSGGCGGGKVAALKEKVAALKEKVAALKEKVAALKE
heavy: EVQLVESGGGLVQPGGSLRLSCAASGFTFSSYTMSWVRQAPGKGLEWVAYISIKGGTTYYPDTVKGRFTISRDNAKNSLYLQMNSLRAEDTAVYYCARQGLPYYGDYWGQGTLVTVSSASTKGPSVFPLAPSSKSTSGGTAALGCLVKDYFPEPVTVSWNSGALTSGVHTFPAVLQSSGLYSLSSVVTVPSSSLGTQTYICNVNHKPSNTKVDKRVEPKSCDKTHTCPPCPAPEAAGGPSVFLFPPKPKDTLYITREPEVTCVVVDVSHEDPEVKFNWYVDGVEVHNAKTKPREEQYNSTYRVVSVLTVLHQDWLNGKEYKCKVSNKALPAPIEKTISKAKGQPREPQVYTLPPSREEMTKNQVSLSCAVKGFYPSDIAVEWESNGQPENNYKTTPPVLDSDGSFFLVSKLTVDKSRWQQGNVFSCSVMHEALHNRYTQKSLSLSPGK
light: DIQMTQSPSSLSASVGDRVTITCKASQDVNEAVAWYQQKPGKAPKLLIYWASTRHTGVPSRFSGSGSGTDFTLTISSLQPEDFATYYCQQHYNTPLTFGQGTKVEIKRTVAAPSVFIFPPSDEQLKSGTASVVCLLNNFYPREAKVQWKVDNALQSGNSQESVTEQDSKDSTYSLSSTLTLSKADYEKHKVYACEVTHQGLSSPVTKSFNRGEC
notes: Trivalent; two CD137 MAB-6(1.3) sites, one hPD-L1 MAB-2(3.2) site
EC50 (read off the curve) [10]: ~0.01 µg/mL
EC50 (read off the curve) [9]: ~0.5 µg/mL

Continued, values first:

EC50 (read off the curve) [1]: ~0.08 µg/mL
EC50 (read off the curve) [2]: ~0.02 µg/mL
EC50 (read off the curve) [3]: ~0.2 µg/mL
EC50 (read off the curve) [4]: ~0.04 µg/mL
EC50 (read off the curve) [5]: ~0.06 µg/mL
B1: DART-A (bispecific antibody, IgG1)
chain 1: DIQMTQSPSSLSASVGDRVTITCKASQDVNTAVAWYQQKPGKAPKLLIYWASTRHTGVPSRFSGSGSGTDFTLTISSLQPEDFATYYCQQHYNTPLTFGQGTKVEIKGGGSGGGGQVQLQESGPGLVKPSETLSLTCTVSGGSISSYYWSWIRQPPGKGLEWIGRIYTSGSTNYNPSLKSRVTMSVDTSKNQFSLKLSSVTAADTAVYYCARDGWYDEDYNYYGMDVWGQGTTVTVSSGGCGGGEVAACEKEVAALEKEVAALEKEVAALEKLEPKSADKTHTCPPCPAPEAAGGPSVFLFPPKPKDTLYITREPEVTCVVVDVSHEDPEVKFNWYVDGVEVHNAKTKPREEQYNSTYRVVSVLTVLHQDWLNGKEYKCKVSNKALPAPIEKTISKAKGQPREPQVYTLPPSREEMTKNQVSLTCLVKGFYPSDIAVEWESNGQPENNYKTTPPVLDSDGSFFLYSKLTVDKSRWQQGNVFSCSVMHEALHNHYTQKSLSLSPG
chain 2: EIVMTQSPATLSLTPGERATLSCRASQSVSSNYLSWFQQIPGQAPRLLIYGASTRATGIPARFSGSGSGTDFTLTISSLQPEDFAVYYCQQDYDLPWTFGQGTKVEIKGGGSGGGGEVQLVESGGGLVQPGGSLRLSCAASGFTFSSYTMSWVRQAPGKGLEWVAYISIGGGTTYYPDTVKGRFTISRDNAKNTLYLQMNSLKTEDTAVYYCARQGLPYYFDYWGQGTLVTVSSGGCGGGKVAACKEKVAALKEKVAALKEKVAALKE
notes: Tetravalent CD137 x PD-L1 Fc diabody; CD137 MAB-6(1.1) and hPD-L1 MAB-2(1.1); IgG1 (AA/YTE)

binding result [8]: binds
B3: hPD-1 MAB-2 VH1 + K83R and T84A (antibody, V domains shown)
VH: B2 VH with K87R, T88A
VL: B2 VL
notes: as for B4

EC50 (read off the curve) [2]: ~0.01 µg/mL
EC50 (read off the curve) [3]: ~0.2 µg/mL
EC50 (read off the curve) [9]: ~0.2 µg/mL
B6: hPD-L1 MAB-2F (antibody) (antibody, V domains shown)
VH: B2 VH with G54K, F105G
VL: B2 VL with T31E

EC50 (read off the curve) [10]: ~0.03 µg/mL
B7: TRIDENT-A5 (bispecific antibody, human IgG1, kappa, L234A L235A)
chain 1: B8 chain 1 with F37Y
chain 2: B8 chain 2 with F37Y
heavy: B8 heavy
light: B8 light
notes: Trivalent; two CD137 MAB-6(1.2) sites, one hPD-L1 MAB-2(3.2) site
